Experimental data taken from patent US8557777B2, “Methods for treating cancer using prostate specific antigen and tumor endothelial marker peptides” (The Board of Trustees of the University of Illinois, priority 2010, dated 2013).
Ends that are not written are not given here.

How the values were obtained:
patients with CaP [1] = conditions: in vivo
patients with CaP [2] = assay: Toxicity graded by NIH Common Terminology Criteria for Adverse Events v3.0
HLA-A2 = HLA-A2 (Homo sapiens, UniProt P04439, D140Y/D185E/D98H/E176V/E277Q/G131W/G231S/I119V/I121R/I166T/I218V/L300P/L318F/N151K/N90K/P208A/P217A/Q86G/Q94H/R138H/R169H/T345S); assay: T2 binding assay: stabilization of HLA-A2 expression by TEM8 peptides; conditions: for expression of HLA-A2 on T2 cells over baseline levels: baseline T2 + DMSO, TEM8 207-215 10 ug/ml, TEM8 298-306 40 ug/ml (FIG. 9)
HLA-A201 = target: T1, HLA-A201 (Homo sapiens, UniProt P04439, D140Y/D185E/D98H/E176V/E277Q/G131W/G231S/I119V/I121R/I166T/I218V/L300P/L318F/N151K/N90K/P208A/P217A/Q86G/Q94H/R138H/R169H/T345S); assay: Peptide-binding assay on T2 cells (PSA peptide)
T1 construct: stabilize the expression of HLA-A2 on antigen-processing defective T2 cell line; host or cells: T2 cells
Protocol: The antigen-processing defective cell line, T2, was used to assay peptide binding to HLA-A201 as previously detailed [Xue et al., Prostate 30(2): 73-8 (1997)]. Briefly, T2 cells (5×10^5/well) were pulsed with PSA-peptide or DMSO at the designated concentration and cultured in 24-well plates overnight (18 hours) at 37° C. in 5% CO2 atmosphere. HLA-A2 expression was measured by flow cytometry using FITC conjugated anti HLA-A2 antibody (clone BB7.2) from BD Biosciences (San Diego, Calif.).

[3] = assay type: physicochemical
Protocol: Identified candidate peptides were synthesized (Protein Laboratory, Research Resources Facility, University of Illinois, Chicago) at greater than 95% purity, dissolved in dimethylsulphoxide (DMSO) at a concentration of 5 mg/ml and stored at −20° C. Peptides were tested for their ability to stabilize the expression of HLA-A2 on antigen-processing defective T2 cell line (ATCC, Manassas, Va.) as previously described [Xue et al., Prostate 1997; 30:73-78]. Briefly, 5×10^5 T2 cells in RPMI 1640 medium containing 10% fetal bovine serum (BioWhitaker, Walkersville, Md.) were incubated with varying amounts (1 to 80 ug/ml) of TEM8 peptide or control HIV-RT476-484 peptide, and cultured in 24 well plates for 18 hours at 37° C. HLA-A2 expression was visualized by direct staining with FITC conjugated MA2.1 antibody or an isotype control (BD Biosciences, San Diego, Calif.) followed by analysis on a FC500 flow cytometer (Beckman Coulter, Miami, Fla.).
TEM8 is known to share 60% sequence homology within the extracellular integrin-like-I domain region with another protein called capillary morphogenesis protein 2 (CMG2) that is widely expressed in normal tissues [Chen et al., J Biol. Chem. 2007 Mar. 30; 282(13):9834-45. Epub 2007 Jan 24]. […] Three remaining peptides were tested in T2 binding assays. […]

## CC(C)C[C@H](NC(=O)[C@H](CC(=O)O)NC(=O)[C@@H](NC(=O)[C@H](CS)NC(=O)[C@H](CCC(N)=O)NC(=O)[C@H](CC(C)C)NC(=O)[C@@H](N)CCCCN)C(C)C)C(=O)N[C@@H](Cc1c[nH]cn1)C(=O)N[C@H](C(=O)O)C(C)C [PSA146-154 peptide]
Patients with CaP [1]
  treatment related grade 3/4 toxicities: no treatment related grade 3/4 toxicities
Patients with CaP [2]; after six to eight years of monitoring
  late safety: no late safety concerns or deleterious sequelae
Patients with CaP [2]; all patients under protocol-1 (intradermal peptide + GM-CSF)
  reactions at the site of injection: Mild pain, itching, and erythema with or without induration

## ALQGIIHSI [TEM8 207-215, 9-mer HLA-A0201 peptide of Tumor Endothelial Marker-8]
HLA-A2
  T2 binding: Yes
  expression of HLA-A2 on T2 cells over baseline levels: showed enhanced expression of HLA-A2 over baseline levels
HLA-A2; control HLA-0201 binding peptide
  binding affinity in comparison to HIV-RT 476-484: greater binding affinity

## CALPERPSLYTKVVHYRKWIK [PSA210-230 peptide, long chain synthetic peptide corresponding to PSA residues 210-230]
HLA-A201
  HLA-A201 binding capacity: binds with high affinity in a concentration dependent fashion

## FLLLALALL [TEM8 331-339]
[3]
  solubility in DMSO: insoluble in DMSO

## SMNDGLSFI [TEM8 298-306, 9-mer HLA-A0201 peptide of Tumor Endothelial Marker-8]
HLA-A2
  T2 binding: Yes
  expression of HLA-A2 on T2 cells over baseline levels: showed enhanced expression of HLA-A2 over baseline levels

## TLNEKPFSV [TEM8 266-274, 9-mer HLA-A0201 peptide of Tumor Endothelial Marker-8]
HLA-A2
  T2 binding: No
  expression of HLA-A2 on T2 cells over baseline levels: did not
